Measurements reported in PMC5753033 (2017).
Residue numbers refer to the chain shown, from its start.

Legend:
WAVE1 PRD[D] = WAVE1 PRD[D] (human, UniProt Q92558 277-488, C296 | C407, Texas Red maleimide (KCK variants) or Alexa 546 maleimide (C variants) on the introduced cysteine); test: AUC
WAVE1 PRD[A] = WAVE1 PRD[A] (human, UniProt Q92558 277-488, C296 | C407, Texas Red maleimide (KCK variants) or Alexa 546 maleimide (C variants) on the introduced cysteine); test: AUC
WAVE1 PRD [Null] = WAVE1 PRD [Null] (human, UniProt Q92558 277-488, C296 | C407, Texas Red maleimide (KCK variants) or Alexa 546 maleimide (C variants) on the introduced cysteine); test: AUC
WAVE1 PRD [Null], sequence (Q92558 other isoform, or with tags, fused parts or gaps, change not shown): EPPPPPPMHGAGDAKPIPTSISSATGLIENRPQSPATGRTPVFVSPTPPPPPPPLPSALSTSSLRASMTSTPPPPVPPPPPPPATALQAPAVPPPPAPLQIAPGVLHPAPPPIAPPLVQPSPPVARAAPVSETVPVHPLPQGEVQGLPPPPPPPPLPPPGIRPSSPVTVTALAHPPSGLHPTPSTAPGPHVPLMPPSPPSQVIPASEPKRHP

WAVE1 PRD[C] = WAVE1 PRD[C] (human, UniProt Q92558 277-488, C296 | C407, Texas Red maleimide (KCK variants) or Alexa 546 maleimide (C variants) on the introduced cysteine); test: AUC
WAVE1 PRD[C], sequence (Q92558 other isoform, or with tags, fused parts or gaps, change not shown): as above

WAVE1 PRD[F] = WAVE1 PRD[F] (human, UniProt Q92558 277-488, C296 | C407, Texas Red maleimide (KCK variants) or Alexa 546 maleimide (C variants) on the introduced cysteine); test: AUC
WAVE1 PRD[F], sequence (Q92558 other isoform, or with tags, fused parts or gaps, change not shown): as above

WAVE1 PRD[B] [1] = target: T1, WAVE1 PRD[B] (human, UniProt Q92558 277-488, C296 | C407, Texas Red maleimide (KCK variants) or Alexa 546 maleimide (C variants) on the introduced cysteine); test: AUC
T1 sequence (Q92558 other isoform, or with tags, fused parts or gaps, change not shown): as above

WAVE1 PRD[E] = WAVE1 PRD[E] (human, UniProt Q92558 277-488, C296 | C407, Texas Red maleimide (KCK variants) or Alexa 546 maleimide (C variants) on the introduced cysteine); test: AUC
WAVE1 PRD[E], sequence (Q92558 other isoform, or with tags, fused parts or gaps, stated change not applied): as the sequence (Q92558 other isoform, or with tags, fused parts or gaps, change not shown) above

WAVE1 PRD[B] [2] = target: T1, WAVE1 PRD[B]; test: AUC; 2:1 binding model, Kd1 (fit)
[3] = target: Native, cytoplasmic actin from Acanthamoeba castellanii, monomeric (Acanthamoeba castellanii); test: FP

WAVE1 PRD[A], sequence (Q92558 other isoform, or with tags, fused parts or gaps, change not shown): as above
WAVE1 PRD[D], sequence (Q92558 other isoform, or with tags, fused parts or gaps, change not shown): as above

B1: Mouse profilin 2a (natural protein)
chain: MAGWQSYVDNLMCDGCCQEAAIVGYCDAKYVWAATAGGVFQSITPVEIDMIVGKDREGFFTNGLTLGAKKCSVIRDSLYVDGDCTMDIRTKSQGGEPTYNVAVGRAGRVLVFVMGKEGVHGGGLNKKAYSMAKYLRDSGF
Kd (WAVE1 PRD[D]): 145 µM
Kd (WAVE1 PRD[A]): 51 µM
Kd (WAVE1 PRD [Null]): 138 µM
Kd (WAVE1 PRD[C]): 12 µM
Kd (WAVE1 PRD[F]): 4 µM
Kd (WAVE1 PRD[B] [1]): 2 µM
Kd (WAVE1 PRD[E]): 182 µM
Kd (WAVE1 PRD[B] [2]): 2.07 µM

B2: WAVE1 WCA, unlabeled, soluble (domain or fragment)
chain: STLPVISDARSVLLEAIRKGIQLRKVEEQREQEAKHERIENDVATILSRRIAVEYSDSEDDSEFDEVDWLE
Kd [3]: 0.068 µM

B3: Alexa488-labeled WAVE1 WCA (domain or fragment)
chain: B2 chain with T2C
modifications: Alexa488-maleimide on Cys490
Kd [3]: 0.029 µM
